Laboratory results as given in the supplement of paper PMC9732359.
± gives the uncertainty stated by the source.

Assay: protein stability index of a GFP-peptide fusion (yeast GPS) (PSI 1-4); higher = more stable; sorted into four equal gates, so the index is relative within each strain
How it was run: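 Sequencing reads from sorted gates were used to score each peptide. The library consisted of tiled 17-residue yeast protein peptides fused downstream of GFP on a Cherry-expressing plasmid, pooled and carried in yeast. Mid-log cultures in leucine-free medium were split into four equal gates by GFP/Cherry ratio, and each gate's plasmids were PCR-amplified and Illumina-sequenced. The protein stability index adds up, over all gates, the read frequency multiplied by the gate number.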

| Sequence | protein stability index (doa10∆) | protein stability index (pdr5∆) | protein stability index (san1∆) | protein stability index (ubr1∆) |
| --- | --- | --- | --- | --- |
| EEKQKSYKFPRGTTAVL [PUP1] | 3.37 ± 0.12 | 3.11 ± 0.13 | 3.14 ± 0.099 | 2.91 ± 0.088 |
| CESCSTVLCTPTGGKAK [RPS27B] | 1.94 ± 0.068 | 2.5 ± 0.056 | 2.07 ± 0.081 | 2.51 ± 0.053 |
| RRKTTKQNSSSDINQND [YDL088C/ASM4] | 3.16 ± 0.096 | 3.15 ± 0.098 | 2.96 ± 0.083 | 2.95 ± 0.059 |
| GPVVAGINSKSGKPFIA [PUP3] | 3.18 ± 0.13 | 3.27 ± 0.11 | 2.99 ± 0.18 | 3.05 ± 0.11 |
| PPSKHSTLTLSDSEDSD [ESC2] | 3.01 ± 0.15 | 2.82 ± 0.14 | 2.59 ± 0.071 | 2.64 ± 0.19 |
| DALQDVEESSEKKQKTE [DPB4] | 3.2 ± 0.082 | 3.42 ± 0.076 | 3.21 ± 0.048 | 3.18 ± 0.052 |
| SIMPDLYFYRNPEEVEQ [RPS0B] | 2.86 ± 0.082 | 2.95 ± 0.077 | 2.94 ± 0.063 | 2.85 ± 0.06 |
| TSIANAFRRIMISEVPS [RPC40] | 1.71 ± 0.043 | 1.83 ± 0.046 | 2.45 ± 0.061 | 1.88 ± 0.042 |
| SYSPTSPSYSPTSPAYS [RPO21] | 3 ± 0.071 | 3.05 ± 0.063 | 2.73 ± 0.062 | 3.15 ± 0.048 |
| KSNSTGNISSSTVKKKD [REC8] | 2.96 ± 0.058 | 2.96 ± 0.058 | 2.83 ± 0.039 | 3.02 ± 0.049 |
| TGYDLSNSVFSPDGRNF [PRE10] | 2.79 ± 0.072 | 2.88 ± 0.089 | 2.52 ± 0.13 | 2.97 ± 0.087 |
| KYPARRIHTNDNDIMNL [SSN3] | 2.83 ± 0.074 | 3.06 ± 0.072 | 2.98 ± 0.077 | 2.9 ± 0.059 |
| IWLIKCCYFIEWKSNHK [SRB8] | 1.69 ± 0.067 | 2.12 ± 0.063 | 2.55 ± 0.063 | 2.59 ± 0.15 |
| NDFNDLNIDWSTTGDNG [MED2] | 2.84 ± 0.05 | 2.86 ± 0.051 | 2.84 ± 0.046 | 2.73 ± 0.042 |
| SQPKIGYGSNKKTKFLS [RPL32] | 1.23 ± 0.15 | 1.52 ± 0.16 | – | 1.38 ± 0.096 |
| ESEYREFESELKNVEET [ESC2] | 3.54 ± 0.25 | 3.47 ± 0.2 | 3.2 ± 0.18 | 3.31 ± 0.15 |
| PRIQRADPVALYLGLKR [RPB5] | 1.82 ± 0.11 | 2.42 ± 0.1 | – | 2.28 ± 0.083 |
| LFKKITNVNPSKNFNVI [YML103C/NUP188] | 2.63 ± 0.048 | 2.37 ± 0.038 | 2.73 ± 0.042 | 2.39 ± 0.036 |
| YLHDNASKVLLKIFLYL [IRR1] | 1.92 ± 0.099 | 1.64 ± 0.075 | 1.42 ± 0.093 | 1.77 ± 0.053 |
| MARRPARCYRYQKNKPY [RPL10] | 2.17 ± 0.092 | 2.13 ± 0.11 | 2.32 ± 0.092 | 2.4 ± 0.1 |
| IIKRSNGQSLSPVRSDS [YMR153W/NUP53] | 2.64 ± 0.093 | 2.87 ± 0.058 | 2.76 ± 0.064 | 2.81 ± 0.037 |
| LPKAWISLAVEGEPVNS [COR1] | 1.38 ± 0.12 | 2.1 ± 0.14 | 2.84 ± 0.14 | 1.79 ± 0.1 |
| SIVHINSQERVQDLGSA [SIR2] | 2.65 ± 0.069 | 3.14 ± 0.064 | 2.99 ± 0.067 | 2.59 ± 0.048 |
| FQDYLTQQAVNLEKNYL [IRR1] | 2.15 ± 0.11 | 2.12 ± 0.11 | 2.02 ± 0.16 | 1.96 ± 0.11 |
| RNLQMGLRNQNMVRNNN [GRR1] | 2.62 ± 0.088 | 2.72 ± 0.093 | 2.63 ± 0.063 | 2.54 ± 0.055 |
| LCVLWDDLQSSVIPEVD [YCG1] | 1.88 ± 0.095 | 1.87 ± 0.068 | 2.01 ± 0.087 | 2.34 ± 0.075 |
| LLSKLLLKHPFKAIHGS [YCS4] | 2.37 ± 0.051 | 2.09 ± 0.05 | 1.67 ± 0.059 | 2.44 ± 0.035 |

| Sequence | protein stability index (doa10∆) | protein stability index (pdr5∆) | protein stability index (san1∆) | protein stability index (ubr1∆) |
| --- | --- | --- | --- | --- |
| ARIVRVRSREDRKNRAP [RPS26A] | 3.55 ± 0.23 | – | 3.27 ± 0.26 | 2.87 ± 0.099 |
| SKVTVPPSKHSTLTLSD [ESC2] | 3.29 ± 0.12 | 3.09 ± 0.13 | 2.9 ± 0.071 | 3.1 ± 0.098 |
| KDKTKNISAEIIRHEKE [SMC4] | 2.58 ± 0.12 | 3.02 ± 0.12 | 2.99 ± 0.086 | 2.91 ± 0.1 |
| CSFITQDKMFVSNPIRK [FAS1] | 1.37 ± 0.081 | 1.3 ± 0.073 | 1.25 ± 0.11 | 1.22 ± 0.042 |
| KEKIKGLQDEIMKIGGI [SMC4] | 3 ± 0.09 | 3.19 ± 0.055 | 3.17 ± 0.049 | 3.36 ± 0.063 |
| SVMMQDSPASNEDDLTV [RPO31] | 3.02 ± 0.097 | 3.08 ± 0.083 | 2.78 ± 0.076 | 3.31 ± 0.12 |
| PDRQSMDSRVAHGNILI [SRB5] | 3.14 ± 0.09 | 3.12 ± 0.064 | 3.02 ± 0.058 | 3.14 ± 0.05 |
| LRNWEELNIIPRDLLRV [PRP28] | 1.09 ± 0.068 | 1.35 ± 0.061 | 1.39 ± 0.21 | 1.07 ± 0.048 |
| IQRTRERKKSIGSQRGR [DSN1] | 2.94 ± 0.077 | 2.5 ± 0.063 | 2.56 ± 0.061 | 2.91 ± 0.069 |
| AQDVALAKKWFLQHPDE [PRP8] | 2.7 ± 0.089 | 2.38 ± 0.095 | 2.33 ± 0.13 | 2.67 ± 0.077 |
| TKLNLHCVIEDDESEQI [RRI1] | 2.2 ± 0.29 | 3.16 ± 0.17 | 2.69 ± 0.12 | 2.65 ± 0.15 |
| PEMSNLYRLSTPLRDEV [PRP8] | 2.76 ± 0.067 | 2.76 ± 0.047 | 2.56 ± 0.044 | 2.75 ± 0.06 |
| SIFEDAIKELNYNRIAK [NUT1] | 2.79 ± 0.13 | 3.12 ± 0.19 | 3.07 ± 0.075 | 2.92 ± 0.12 |
| LPEKVNFRTMQQQQMQQ [SSN2] | 2.3 ± 0.18 | 2.75 ± 0.18 | 2.46 ± 0.19 | 2.38 ± 0.14 |
| RHNKSHTLCNRCGRRSF [RPL37A] | 3.25 ± 0.045 | 3.18 ± 0.064 | 2.82 ± 0.042 | 3.08 ± 0.039 |
| ISTPIINAVLVNDNDER [RPO31] | 2.25 ± 0.085 | 2.22 ± 0.1 | 2.31 ± 0.12 | 2.21 ± 0.086 |
| DANRNANNIVNIVSDAG [GRR1] | 3.07 ± 0.068 | 3.06 ± 0.059 | 2.99 ± 0.041 | 2.97 ± 0.067 |
| GAMTPEEIFFKSVRILK [RPC40] | 2.9 ± 0.12 | 3.28 ± 0.14 | 2.96 ± 0.14 | 3.22 ± 0.093 |
| VVDTEETATLIMNELYR [SMC3] | 3.02 ± 0.086 | 3.17 ± 0.11 | 2.79 ± 0.1 | 3.03 ± 0.096 |
| VQQRYTQSGGVRPFGVS [PRE6] | 2.8 ± 0.22 | – | – | – |
| TQIVAKFPETSYPILNE [SIN4] | 2.92 ± 0.091 | 3.02 ± 0.068 | 2.91 ± 0.081 | 2.89 ± 0.057 |
| NKQPRNESFNRRISSMP [YAR002W/NUP60] | 2.62 ± 0.068 | 3.04 ± 0.07 | 2.53 ± 0.078 | 2.99 ± 0.038 |
| EELFTQLFHSMSIVFGD [UBP6] | 3.17 ± 0.087 | 3.35 ± 0.087 | 3.38 ± 0.05 | 2.98 ± 0.089 |
| LGCTLVTLLANVRALYM [RMP1] | 1.62 ± 0.17 | 1.85 ± 0.21 | 2.74 ± 0.16 | 2.06 ± 0.073 |
| SREVLRYEEFADKVKLG [RPC40] | 2.96 ± 0.08 | 3.26 ± 0.19 | 3.17 ± 0.12 | 3.21 ± 0.14 |
| TIRYLMQKQHEMKTQAA [SNF6] | 2.83 ± 0.049 | 2.98 ± 0.051 | 2.99 ± 0.046 | 2.9 ± 0.032 |
| PEEEAAIRRENEWAEDR [SKP1] | 3.09 ± 0.1 | 3.15 ± 0.082 | 3.34 ± 0.05 | 3.28 ± 0.1 |
